Source: patent US20030166864A1 (Human Genome Sciences, published 2003)

Target: T1, TACI-Fc fusion protein (transmembrane activator and CAML-interactor fused to Fc) (Homo sapiens (Human), UniProt O14836 1-159)
T1 construct: also called TACI-FC protein; Full-length TACI-Fc; not shown: Fc part from the vector pC4-Fc
T1 sequence: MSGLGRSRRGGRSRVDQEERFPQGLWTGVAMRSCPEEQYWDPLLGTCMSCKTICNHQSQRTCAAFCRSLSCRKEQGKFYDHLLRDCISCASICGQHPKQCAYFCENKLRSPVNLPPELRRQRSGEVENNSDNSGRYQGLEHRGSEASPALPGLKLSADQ
Experiment: BIAcore (SPR), TACI-Fc amine-coupled to a CM5 chip, TNF-epsilon in flow
Description: BIAcore analysis was performed essentially as follows. TACI-FC protein was immobilized to the BIAcore sensor chip (CM5 chip) via amine groups using N-ethyl-N′-(dimethlaminopropyl)carbodiimide/N-hydroxysuccinimide chemistry. Various dilutions of TNF-epsilon or other TNF ligands were flowed over the receptor-derivatized flow cells at a rate of 15 microliters per minute for a total volume of 50 microliters. The amount of bound protein was determined during washing of the flow cell with HBS buffer (10 mM HEPES, pH 7.4, 150 mM NaCl, 3.4 mM EDTA, 0.005% Surfactant P20). Binding specificity of TNF-epsilon to TACI was determined by competition with soluble competitor. The flow cell surface was regenerated by displacing bound protein by washing with 20 microliters of 10 mM glycine-HCl, pH=2.3.

Kd: 6 nM
B1: TNF-epsilon (purified, trimeric form isolated by size exclusion chromatography) (ligand)
chain: AVLTQKQKNDSDVTEVMWQPALRRGRGLQAQGYGVRIQDAGVYLLYSQVLFQDVTFTMGQVVSREGQGRQETLFRCIRSMPSHPDRAYNSCYSAGVFHLHQGDILSVIIPRARAKLNLSPHGTFLGFVKL
